{"source": "patent US10632208B2", "about": "“Peptide-mediated drug delivery across epithelial barrier” (Purdue Research Foundation, priority 2017, dated 2020)", "key": {"Caco-2 cell monolayers": {"test_system": "Caco-2 cell monolayers", "test": "Apical-to-basolateral flux of paracellular marker FD4 through Caco-2 monolayers", "type": "cell-based, human", "details": "LAP 1 μg/mL, over a 72-h period; TNF-α 10 ng/mL positive control", "description": "To determine the effect of LAP on Caco-2 permeability at specified time points (0, 24, 48 and 72 h) following incubation with recombinant purified LAP, 100 μl of FD4 (1 mg/mL in DMEM) was added to the apical side and the fluorescence readings (Em: 485 nm; Ex: 520 nm; Spectramax, Molecular Devices) for the basal medium (100 μl) were measured. Human TNF-α (10 ng/mL, R&D Systems) was added to both apical and basal sides and used as a positive control."}, "L. monocytogenes": {"test_system": "L. monocytogenes", "test": "Translocation of L. monocytogenes through polarized Caco-2 monolayers on Transwell filter-inserts", "type": "cell-based, Listeria monocytogenes", "details": "LAP 1 or 2 μg/mL, MOI 50", "description": "Caco-2 cells were grown as monolayers on Transwell inserts with 3.0 μm pores (Corning-Costar) for up to 14-21 days. TEER was measured to monitor the monolayer integrity (Millicells Voltmeter, Millipore). A TEER value of at least 200 Ω/cm^2 (±10) was used as the basal value to monitor the monolayer integrity. Bacterial cells were washed three times in PBS and resuspended in DMEM-FBS (10%) at a MOI of ˜50 and were added to the apical side of the Transwell system, and after 2 h incubation period at 37° C. in 5% CO2, the liquid was collected from the basal well, and then translocated bacteria were enumerated by plating (Burkholder and Bhunia, 2010). For analysis of FD4 flux, non-metabolizable 4 kDa FITC-labeled dextran (FD4; 5 mg/ml, Sigma-Aldrich) was added with bacteria (MOI, ˜50) resuspended in DMEM-FBS (10%) and added to the apical side. After 2 h incubation at 37° C. in 5% CO2, the liquid was collected from the basal well and fluorescence was measured (Em: 485 nm; Ex: 520 nm; Spectramax, Molecular Devices). For pharmacological inhibition treatments, PDTC (100 μM for 30 min pre-treatment; R&D Systems), Bay-11-7085 (10 μM for 30 min pre-treatment; Sigma-Aldrich), ML-9 (20 μM for 30 min pre-treatment; Sigma-Aldrich), PIK (150 μM, 30 min-pre-treatment and kept during 2-h infection) (Zolotarevsky et al., 2002), and Cytochalasin D (1 μg/mL for 1 h; Sigma-Aldrich) were used separately.\nFor re-association of externally added LAP to the lap^− mutant, bacteria were harvested from 1 ml of overnight grown culture, and the pellet was washed three times in PBS before the addition of 1 or 2 μg/mL of purified LAP. The mixture was incubated for 30 min at 30° C. with continuous shaking and then pelleted, washed five times in the PBS, resuspended in DMEM, and used in the aforementioned translocation assay."}, "NF-κB(p65)": {"test_system": "NF-κB(p65)", "test": "Confocal immunofluorescence of p65 localization in Caco-2 cells", "type": "cell-based, human", "details": "30 min", "description": "For antibody labeling in cells, Caco-2 cells, were grown to 40-50% confluence in four-chambered slides (Millipore). At the end of the treatment, the cells were fixed with 3.7% formaldehyde in PBS for 20 min and permeabilized and blocked with PBS containing 0.3% Triton X-100 and 3% BSA (Sigma-Aldrich) for 1 h at room temperature and then incubated with respective antibodies overnight at 4° C. Following antibody incubation, the cells were washed with PBS (3 cycles, 5 min) and incubated with FITC or Alexa Fluor 555-conjugated secondary antibody for 2 h at room temperature. The nuclei were stained with DAPI (500 ng/ml; Cell signaling) and slides were mounted in ProLong antifade reagent (Cell Signaling).\nAll images were acquired using a Nikon A1R MP Multiphoton (Nikon) Confocal fluorescence microscope using a 60× oil immersion objective equipped with the Nikon Elements software (Nikon) at the Purdue Bioscience Imaging Facility. The X-Z and Y-Z cross-sections were produced by orthogonal reconstructions from z-stack scanning at 0.15 μm intervals taken with 60× objective in 5 μm thick paraffin embedded tissue section. Three-dimensional reconstructions were performed using Nikon elements software (Nikon)."}, "IL-6": {"test_system": "IL-6", "test": "ELISA of IL-6 in Caco-2 cell supernatants", "type": "cell-based, human", "details": "recombinant LAP 1 μg/mL, 8 h", "description": "A semi-quantitative membrane-based RayBio Human Inflammation Antibody Array kit (Ray Biotech) was used to analyze a panel of 40 inflammatory mediators in Caco-2 cell supernatant infected either with the WT or lap^− strain (MOI, ˜50) at 37° C. for 1 h. After killing the extracellular bacteria by gentamicin (50 μg/mL), the Caco-2 cells were incubated for an additional 7 h at 37° C. Recombinant LAP (1 μg/mL) from ClearColi was incubated for 8 h with Caco-2 cells. After immunoblotting, the reaction intensity was quantified using NIH ImageJ software. The data were normalized and expressed as the mean fold changes as a ratio of lap^−/WT±SEM. For the ELISA, Caco-2 cell supernatants were centrifuged (2,000 rpm at 4° C. for 10 min) following treatment as above, and the quantification of TNF-α and IL-6 in was performed using human TNF-α and IL-6 ELISA kits (Ray Biotech) as per manufacturer's instruction. The quantification of TNF-α and IL-6 protein levels was performed in the ileal tissue lysates from mice using mouse TNF-α and IL-6 ELISA kits (Ray Biotech) as per manufacturer's instruction."}}, "data": [{"molecule": "LAP: Listeria adhesion protein, alcohol acetaldehyde dehydrogenase of Listeria monocytogenes, 866 aa, 94 kDa; recombinant, histidine-tagged form SEQ ID NO: 10 (protein, Listeria monocytogenes) MAIKENAAQEVLEVQKVIDRLADNGQKALKAFESYNQEQVDNIVHAMALAGLDQHMPLAKLAVEETGRGLYEDKCIKNIFATEYIWNNIKNNKTVGVINEDVQTGVIEIAEPVGVVAGVTPVTNPTSTTLFKAIIAIKTRNPIIFAFHPSAQRCSSAAAKVVYDAAIAAGAPEHCIQWVEKPSLEATKQLMNHDKVALVLATGGAGMVKSAYSTGKPALGVGPGNVPAYIDKTAKIKRSVNDIILSKSFDQGMICASEQAVIVDKEVAKEVKAEMEANKCYFVKGAEFKKLESYVINPEKGTLNPDVVGKSPAWIANQAGFKVPEDTKILVAEIKGVGDKYPLSHEKLSPVLAFIEAANQAEAFDRCEEMLVYGGLGHSAVIHSTDKEVQKAFGIRMKACRIIVNAPSAQGGIGDIYNGFIPSLTLGCGSYGKNSVSQNVSATNLLNVKRIADRRNNMQWFKLPPKIFFEKYSTQYLQKMEGVERVFIVTDPGMGSFKYVDVVIEHLKKRGNDVAYQVFADVEPDPSDVTVYKGAELMKDFKPDTIIALGGGSAMDAAKGMWLFYEHPEASFFGLKQKFLDIRKRTFKYPKLGGKAKFVAIPTTSGTGSEVTPFAVITDKENNIKYPLADYELTPDVAIVDAQYVTTVPAHITADTGMDVLTHAIESYVSVMASDYTRGLSIRAIELVFENLRESVLTGDPDAREKMHNASALAGMAFANAFLGINHSLAHKIGPEFHIPHGRANAILMPHVIRYNALKPKKHALFPRYESFRADEDYARISRIIGFPAATTEEGVKSLVDEIIKLGKDVGIDMSLKGQNVAKKDLDAVVDTLADRAFMDQCTTANPKQPLVSELKEIYLEAYKGV", "values": [{"measurement": "FD4 permeability", "setting": "Caco-2 cell monolayers", "value": "significant increase in FD4 permeability equivalent to TNF-α"}, {"measurement": "translocation of the lap- strain after pre-incubation with exogenous purified LAP", "setting": "L. monocytogenes", "value": "rescued the translocation defect"}, {"measurement": "localization of p65", "setting": "NF-κB(p65); Caco-2 cells, LAP 1 μg/mL or TNF-α 10 ng/mL", "value": "in the nucleus"}, {"measurement": "localization of p65", "setting": "NF-κB(p65); Hsp60 knocked-down Caco-2 cells", "value": "retained p65 within the cytoplasm"}, {"measurement": "localization of p65", "setting": "NF-κB(p65); shRNA vector control Caco-2 cells", "value": "nuclear translocation of p65"}, {"measurement": "IL-6 production", "setting": "IL-6", "value": "significantly higher levels"}]}]}
